Blank lines part the entries; values can stand above or below the binder they belong to.
Experiments:
Experiment in all cases: two-hybrid library CCNG1;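 also: natural log of median RNA to DNA barcode read ratio; higher means stronger binding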
[1] = molecular target: T1, 4H2667-bN
T1 chain: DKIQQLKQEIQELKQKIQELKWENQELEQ

[2] = molecular target: T2, 4H2697-bN
T2 chain: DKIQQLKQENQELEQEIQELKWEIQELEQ

[3] = molecular target: T3, 4H2729-bN
T3 chain: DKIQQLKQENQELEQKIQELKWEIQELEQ

[4] = molecular target: T4, 4H3112-bN
T4 chain: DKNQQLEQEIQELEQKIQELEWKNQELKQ

[5] = molecular target: T5, 4H3185-bN
T5 chain: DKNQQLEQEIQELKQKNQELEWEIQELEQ

[6] = molecular target: T6, 4H3189-bN
T6 chain: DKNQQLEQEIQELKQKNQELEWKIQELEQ

[7] = molecular target: T7, 4H331-bN
T7 chain: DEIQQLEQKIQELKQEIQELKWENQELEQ

[8] = molecular target: T8, 4H3354-bN
T8 chain: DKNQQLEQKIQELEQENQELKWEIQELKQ

[9] = molecular target: T9, 4H338-bN
T9 chain: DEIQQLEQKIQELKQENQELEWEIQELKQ

[10] = molecular target: T10, 4H3427-bN
T10 chain: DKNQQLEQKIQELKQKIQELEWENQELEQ

[11] = molecular target: T11, 4H3606-bN
T11 chain: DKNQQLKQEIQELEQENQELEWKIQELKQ

[12] = molecular target: T12, 4H370-bN
T12 chain: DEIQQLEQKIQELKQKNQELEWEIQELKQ

[13] = molecular target: T13, 4H3782-bN
T13 chain: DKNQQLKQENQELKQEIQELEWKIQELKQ

[14] = molecular target: T14, 4H3843-bN
T14 chain: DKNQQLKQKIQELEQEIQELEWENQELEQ

[15] = molecular target: T15, 4H3855-bN
T15 chain: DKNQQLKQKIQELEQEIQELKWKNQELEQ

[16] = molecular target: T16, 4H4001-bN
T16 chain: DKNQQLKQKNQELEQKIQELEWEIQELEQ

[17] = molecular target: T17, 4H454-bN
T17 chain: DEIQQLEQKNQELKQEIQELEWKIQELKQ

[18] = molecular target: T18, 4H462-bN
T18 chain: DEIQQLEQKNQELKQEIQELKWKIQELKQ

[19] = molecular target: T19, 4H568-bN
T19 chain: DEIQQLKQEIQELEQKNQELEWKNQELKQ

[20] = molecular target: T20, 4H575-bA
T20 chain: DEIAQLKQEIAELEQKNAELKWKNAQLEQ

[21] = molecular target: T21, 4H607-bN
T21 chain: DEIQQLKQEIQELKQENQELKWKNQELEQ

[22] = molecular target: T22, 4H687-bN
T22 chain: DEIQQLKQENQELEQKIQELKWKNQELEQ

[23] = molecular target: T23, 4H717-bN
T23 chain: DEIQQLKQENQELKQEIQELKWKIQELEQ

[24] = molecular target: T24, 4H72-bN
T24 chain: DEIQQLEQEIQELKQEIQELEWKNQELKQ

[25] = molecular target: T25, 4H754-bN
T25 chain: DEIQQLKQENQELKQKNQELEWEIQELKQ

[26] = molecular target: T26, 4H797-bN
T26 chain: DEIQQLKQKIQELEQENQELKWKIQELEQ

[27] = molecular target: T27, 4H883-bN
T27 chain: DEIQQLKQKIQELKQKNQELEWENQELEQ

[28] = molecular target: T28, 4H908-bN
T28 chain: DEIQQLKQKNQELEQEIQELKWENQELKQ

[29] = molecular target: T29, 4H918-bN
T29 chain: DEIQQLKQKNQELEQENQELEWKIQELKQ

[30] = molecular target: T30, 4H953-bN
T30 chain: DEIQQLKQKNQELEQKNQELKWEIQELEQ

[31] = molecular target: T31, 4H967-bN
T31 chain: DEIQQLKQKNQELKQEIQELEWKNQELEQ

[32] = molecular target: T32, 4H2667-bH
T32 chain: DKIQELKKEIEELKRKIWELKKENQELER

[33] = molecular target: T33, 4H2697-bH
T33 chain: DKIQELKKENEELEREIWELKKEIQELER

[34] = molecular target: T34, 4H2729-bH
T34 chain: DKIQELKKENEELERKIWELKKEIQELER

[35] = molecular target: T35, 4H3112-bH
T35 chain: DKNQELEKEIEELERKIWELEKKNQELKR

[36] = molecular target: T36, 4H3185-bH
T36 chain: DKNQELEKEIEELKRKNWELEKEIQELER

[37] = molecular target: T37, 4H3189-bH
T37 chain: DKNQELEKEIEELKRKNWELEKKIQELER

[38] = molecular target: T38, 4H331-bH
T38 chain: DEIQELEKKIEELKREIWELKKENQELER

[39] = molecular target: T39, 4H3354-bH
T39 chain: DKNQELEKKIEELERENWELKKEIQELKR

[40] = molecular target: T40, 4H338-bH
T40 chain: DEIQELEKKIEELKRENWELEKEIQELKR

[41] = molecular target: T41, 4H3427-bH
T41 chain: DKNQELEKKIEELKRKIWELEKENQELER

[42] = molecular target: T42, 4H3606-bH
T42 chain: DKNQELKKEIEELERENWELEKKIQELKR

[43] = molecular target: T43, 4H370-bH
T43 chain: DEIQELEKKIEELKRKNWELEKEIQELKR

[44] = molecular target: T44, 4H3782-bH
T44 chain: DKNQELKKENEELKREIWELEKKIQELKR

[45] = molecular target: T45, 4H3843-bH
T45 chain: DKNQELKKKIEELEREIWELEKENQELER

[46] = molecular target: T46, 4H3855-bH
T46 chain: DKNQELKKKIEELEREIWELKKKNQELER

[47] = molecular target: T47, 4H4001-bH
T47 chain: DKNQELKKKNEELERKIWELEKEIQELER

[48] = molecular target: T48, 4H454-bH
T48 chain: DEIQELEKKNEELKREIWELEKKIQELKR

[49] = molecular target: T49, 4H462-bH
T49 chain: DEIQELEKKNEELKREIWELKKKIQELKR

[50] = molecular target: T50, 4H568-bH
T50 chain: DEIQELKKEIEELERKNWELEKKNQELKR

[51] = molecular target: T51, 4H607-bH
T51 chain: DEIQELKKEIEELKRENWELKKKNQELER

[52] = molecular target: T52, 4H687-bH
T52 chain: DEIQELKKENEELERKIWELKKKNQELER

[53] = molecular target: T53, 4H717-bH
T53 chain: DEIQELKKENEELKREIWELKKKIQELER

[54] = molecular target: T54, 4H72-bH
T54 chain: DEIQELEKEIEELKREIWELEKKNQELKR

[55] = molecular target: T55, 4H754-bH
T55 chain: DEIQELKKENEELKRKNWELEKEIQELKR

[56] = molecular target: T56, 4H797-bH
T56 chain: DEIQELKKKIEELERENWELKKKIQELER

[57] = molecular target: T57, 4H883-bH
T57 chain: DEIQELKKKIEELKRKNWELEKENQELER

[58] = molecular target: T58, 4H908-bH
T58 chain: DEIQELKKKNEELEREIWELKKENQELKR

[59] = molecular target: T59, 4H918-bH
T59 chain: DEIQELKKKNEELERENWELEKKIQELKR

[60] = molecular target: T60, 4H953-bH
T60 chain: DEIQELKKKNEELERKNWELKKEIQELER

[61] = molecular target: T61, 4H967-bH
T61 chain: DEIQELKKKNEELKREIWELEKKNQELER

[62] = molecular target: T62, O4-bN
T62 chain: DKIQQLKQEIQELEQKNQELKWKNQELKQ

[63] = molecular target: T63, 4H3817-bN
T63 chain: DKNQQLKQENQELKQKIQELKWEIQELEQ

- interaction score [1]: 0.858
- interaction score [2]: -0.288
- interaction score [3]: -0.251
- interaction score [4]: 1.72
- interaction score [5]: -0.735
- interaction score [6]: -0.514
- interaction score [7]: 2.18
- interaction score [8]: -1.12
- interaction score [9]: 0.105
- interaction score [10]: 1.56
- interaction score [11]: 0.163
- interaction score [12]: -0.572
- interaction score [13]: -0.86
- interaction score [14]: 1.5
- interaction score [15]: -0.551
- interaction score [16]: 0.942
- interaction score [17]: 0.31
- interaction score [18]: -1.28
- interaction score [19]: -0.122
- interaction score [20]: -1.2
- interaction score [21]: -1.69
- interaction score [22]: -1.55
- interaction score [23]: -0.215
- interaction score [24]: 0.513
- interaction score [25]: -0.798
- interaction score [26]: -1.02
- interaction score [27]: -0.0532
- interaction score [28]: -0.467
- interaction score [29]: -1.12
- interaction score [30]: -0.794
- interaction score [31]: -0.671
Binder: DKIQQLKQEIQELKQKIQELKWENQELEQ [4H2667-bN]

- interaction score [32]: 0.801
- interaction score [33]: 1.31
- interaction score [34]: 1.75
- interaction score [35]: -0.422
- interaction score [36]: 0.789
- interaction score [37]: -0.454
- interaction score [38]: 1.71
- interaction score [39]: -0.302
- interaction score [40]: 1.42
- interaction score [41]: 1.38
- interaction score [42]: 1.83
- interaction score [43]: 0.226
- interaction score [44]: -0.0673
- interaction score [45]: 1.84
- interaction score [14]: 1.56
- interaction score [46]: 0.693
- interaction score [47]: -2.94
- interaction score [48]: 0.0385
- interaction score [49]: 1.01
- interaction score [50]: 0.0192
- interaction score [51]: 0.145
- interaction score [52]: -0.168
- interaction score [53]: -0.859
- interaction score [54]: 0.612
- interaction score [55]: -0.933
- interaction score [56]: -0.539
- interaction score [57]: 0.434
- interaction score [58]: -1.3
- interaction score [59]: -2.64
- interaction score [60]: 0.0882
- interaction score [61]: -0.166
- interaction score [62]: -0.678
Binder: DKIQELKKEIEELKRKIWELKKENQELER [4H2667-bH]

- interaction score [34]: 1.2
- interaction score [35]: 0.258
- interaction score [36]: -3.12
- interaction score [38]: -1.61
- interaction score [39]: -0.446
- interaction score [40]: -0.279
- interaction score [41]: 0.368
- interaction score [44]: 0.82
- interaction score [46]: 0.286
- interaction score [47]: -0.467
- interaction score [48]: 1.36
- interaction score [50]: -0.0225
- interaction score [51]: -1.66
- interaction score [52]: -0.723
- interaction score [53]: -0.127
- interaction score [54]: -1.03
- interaction score [55]: 0.0247
- interaction score [56]: -0.381
- interaction score [57]: -0.885
- interaction score [58]: -0.811
- interaction score [59]: 0.482
- interaction score [60]: -0.638
- interaction score [61]: 0.548
Binder: DKIQELKKENEELERKIWELKKEIQELER [4H2729-bH]

- interaction score [3]: -1.82
- interaction score [4]: -0.365
- interaction score [5]: -0.905
- interaction score [7]: -1.39
- interaction score [8]: -0.621
- interaction score [9]: -1.12
- interaction score [10]: -1.07
- interaction score [13]: -0.911
- interaction score [63]: -0.912
- interaction score [15]: -0.181
- interaction score [16]: -1.4
- interaction score [17]: 1.43
- interaction score [19]: -1.47
- interaction score [21]: -1.28
- interaction score [22]: -0.901
- interaction score [23]: -1.59
- interaction score [24]: -1.09
- interaction score [25]: -0.565
- interaction score [26]: -1.01
- interaction score [27]: -2.01
- interaction score [28]: -1.64
- interaction score [29]: -0.584
- interaction score [30]: -0.965
- interaction score [31]: -0.995
Binder: DKIQQLKQENQELEQKIQELKWEIQELEQ [4H2729-bN]
